Test results: patent US20120244208A1, “COSMETIC SKIN CARE METHODS AND COMPOSITIONS” (priority 2009, published 2012)

Key:
[1] = tested on: Normal human dermal fibroblasts (NHDFs) seeded on collagen type 1 gels; assay: Fibroblast-seeded collagen gel contraction; format: cell-based; settings: 0.1 mg/ml lactoferrin, 0.1 mg/ml ICI 118 551, 1.0 mg/ml Isoproterenol, 3.5×10^4 cells per well
Procedure: Normal human dermal fibroblasts (NHDFs) were obtained by tissue donation following circumcision following patient informed consent. The tissue was rinsed in Phosphate Buffered Saline (PBS) and Pen/Strep and Amphotericin B (Pen/strep) at 10 ug/ml. The tissue was then minced to 1 mm2 sections and suspended in Trypsin-EDTA 1:250 at room temperature (RT) for 1 hr. The tissue was then washed twice by centrifugation at 2500 g for 3min in serum supplemented DMEM/F12. A single cell suspension was created using mechanical disaggregation. The cells were counted using a haemocytometer and cultured at 1×10^6 cells per T75 tissue culture flask in DMEM/F12 containing 10% Fetal Bovine Serum (FBS) and 10 ug/ml Pen/strep. Incubators were kept at 37° C. and 5% CO2. Medium was changed every 3-4 days and cells were used from the 4th passage in vitro.
Collagen gels were formed. A solution of collagen, consisting of 2 mg/ml type 1 bovine collagen from bovine Achilles tendon in 0.5M acetic acid, was made. This made up 80% of the gel. Another 10% was made up of 10×PBS and the remaining volume was made up of FBS. The pH of the entire solution was adjusted to 7.4 using NaOH. 400 μl of the solution was placed into each well of a 24 well plate. The gels were set at 37° C. for 1 hr. After ensuring that the gels were set properly, they were detached from the sides of the wells and exposed to 1 ml fully supplemented DMEM/F12 overnight to acclimatize. The complete gels were seeded with 3.5×10^4 cells per well and the test compounds were added at this point. The test compound were added as follows: 0.1 mg/ml lactoferrin, 0.1 mg/ml ICI 118 551, 1.0 mg/ml Isoproterenol. A cell only and no cell control were also incuded.
Photographs were taken from the same distance at 0, 3, 6, 12 and 24 hrs of exposure using a Canon Powershot A640 10MP camera. The photos were transferred to CorelDRAW X3 and the inside diameter of the well as well as the outer edge of the gel were measured using the circle tool. […] These two diameters were then converted to a percentage of the well diameter by the formula geloutside/wellinside×100=gelrelative. This value was then worked out the same way for each gel at every time period. The time period Ohrs taken to be 100% of gel size and each time period after that was compared to it as a relative percentage. The standard deviation was calculated based on the original relative percentage to the well.

[2] = tested on: Normal human dermal fibroblasts (NHDFs) seeded on collagen type 1 gels; assay: Fibroblast-seeded collagen gel contraction; format: cell-based; settings: monitored for a further 3 days

B1: Lactoferrin (protein, UniProt P02788 20-710, looked up)
Lactotransferrin: GRRRSVQWCAVSQPEATKCFQWQRNMRKVRGPPVSCIKRDSPIQCIQAIAENRADAVTLDGGFIYEAGLAPYKLRPVAAEVYGTERQPRTHYYAVAVVKKGGSFQLNELQGLKSCHTGLRRTAGWNVPIGTLRPFLNWTGPPEPIEAAVARFFSASCVPGADKGQFPNLCRLCAGTGENKCAFSSQEPYFSYSGAFKCLRDGAGDVAFIRESTVFEDLSDEAERDEYELLCPDNTRKPVDKFKDCHLARVPSHAVVARSVNGKEDAIWNLLRQAQEKFGKDKSPKFQLFGSPSGQKDLLFKDSAIGFSRVPPRIDSGLYLGSGYFTAIQNLRKSEEEVAARRARVVWCAVGEQELRKCNQWSGLSEGSVTCSSASTTEDCIALVLKGEADAMSLDGGYVYTAGKCGLVPVLAENYKSQQSSDPDPNCVDRPVEGYLAVAVVRRSDTSLTWNSVKGKKSCHTAVDRTAGWNIPMGLLFNQTGSCKFDEYFSQSCAPGSDPRSNLCALCIGDEQGENKCVPNSNERYYGYTGAFRCLAENAGDVAFVKDVTVLQNTDGNNNEAWAKDLKLADFALLCLDGKRKPVTEARSCHLAMAPNHAVVSRMDKVERLKQVLLHQQAKFGRNGSDCPDKFCLFQSETKNLLFNDNTECLARLHGKTTYEKYLGPQYVAGITNLKKCSTSPLLEACEFLRK
notes: transferrin; known collagen contractor
With B1 the “% of original size (mean)” value ([1]; 0 hrs (taken to be 100% of gel size)) was 100%, the “% of original size (mean)” value ([1]; 3 hrs) was 92.62% and the “% of original size (mean)” value ([1]; 6 hrs) was 64.48%. The “% of original size (mean)” value ([1]; 12 hrs) was 54.71%, the “% of original size (mean)” value ([1]; 24 hrs) was 49.73% and the “return of gels to original dimensions” value [2] was “did not return to their original dimensions”.
